Source: the nanobody polyreactivity screen of Harvey et al. (2022)

assay: yeast display, Sf9 membrane polyspecificity reagent, FACS + sequencing; frameworks hold sequencing errors
In short: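 Genes from sorted yeast were amplified by colony PCR, read by MiSeq 2 × 250 sequencing and filtered on CDR length. These cells carried a synthetic nanobody library in Saccharomyces cerevisiae BJ5465 and were sorted by FACS into low and high (top ~1%) gates on anti-HA and streptavidin fluorescence. Polyreactivity is labelled according to the gate of origin.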

| Sequence | polyreactivity (PSR sort gate) |
| --- | --- |
| QVQLVESGGGLVQAGGSLRLSCAATGSIIQWNAMGWYRQAPGKERELVAAISWSGTRTYFADSVKGRFTISRDNAKNTVYLQMNSLKPEDTAVYYCAFRGGKPTYRYDYWGQGTQVTVSS | high polyreactivity |
| QVQLVESGGGLVQAGGSLRLSCAATGSISGYYAMGWYRQAPGKERELVASIRYTGARTYYADSVKGRFTISRDNAKNTVYLQMNSLKPEDTAVYACAADVKRDRVWGGDYWGQGTQVTVSS | low polyreactivity |
| QVQLVESGGGLVQAGGSLRLSCAATGSLFLPYGMGWYSQAPGKERELVAAFSRGGGSTYYADSVKGRFTISRDNAKNTVYLQMNSLKPEDTAVYYCAVDNLKSRAQSLDGFDYWGQGTQVTVSS | high polyreactivity |
| QVQLVESGGGLVQAGGSLRLSCAATGSTFRPYAMGWYRQAPGKERELVAAITTGGSTNYADSVKGRFTISRDNAKNTVYLQMNSLKPEDTAVYYCNADYDVLNWGYYDWGYDYWGQGTQVTVSS | low polyreactivity |
| QVQLVESGGGLVQAGGSLRLSCAATGSTFTAYAMAWYRQAPGKESELVAAIRRIGGDTYYADSVKGRFTISRDNAKNTVYLQMNSLKPEDSAVYYCAAFRWRSPQYWYHSMDHWGQGSQVTVSS | low polyreactivity |
| QVQLVESGGGLVQAGGSLRLSCAATGSTFTAYAMSWYRQAPGKESELVAAIRRIGGDTYYADSVKGLFTISRDNAKNTVYLQMNSLKPEDTAVYYCAAFRWRSLQYWYHSMDLWGQGSQVTVSS | low polyreactivity |
| QVQLVESGGGLVQAGGSLRLSCAATGSTFTFNAMGWYRQAPGKEREFVAAITASGGRTYYADSVKGRFTISRDNAKNTVYLQMNSLKPEDTAVYYCAADACLLGPGDFNYWGQGTQVTVSS | low polyreactivity |
| QVQLVESGGGLVQAGGSLRLSCAATGSTYKYYAMGWYRQAPGKERELVAAITKSGGRTYYSDSVKGRLTISRDNAKNTVYLQMNSLKPEDTAVYYCATVTSHVDDEFDYWGQGTQVTVSS | high polyreactivity |
| QVQLVESGGGLVQAGGSLRLSCAATGTFRRYAMGWYRQAPGKERELVAAITRNGGSTYYADSVKGRFTISRDNAKNTVYLQMNSLKPEDTAVYYCAAGLFWGGFRQWTDHHFDCDYYWGQGTQVTVSS | high polyreactivity |
| QVQLVESGGGLVQAGGSLRLSCAATGYTFFFYAMGWYRQAPGKEREFVAASTWRGDSTYYADSVKGRFTISRDNAKNTVYLQMNSLKPEDTAVYYCAADPGFTWSRRMDYWGQGTQVTVSS | low polyreactivity |
| QVQLVESGGGLVQAGGSLRLSCAATRSTIQANTIGWYRQAPGKERALVAAISIRGANTYYADSVKGRLTISRDNAKNTFYLQMNSLKREDSAVYYCATRVGKYSLSLDYWGQGTQVTVSS | high polyreactivity |
| QVQLVESGGGLVQAGGSLRLSCAAWSIFYLNAMGWYRQAHGKERELVAAISSAGSTYYADSVKGRFTISRDNAKKTVYLHMNSLKPEDTAVYYCAAYWYDSPGVTEIWYDYWGQGTQVTVSS | low polyreactivity |
| QVQLVESGGGLVQAGGSLRLSCAAWSIFYLNAMGWYRQAPGKERELVAAISSAGSTYYADSVKGRFTISRDNAKNTVYLQLNSLKPEDTAVYYCAAYWYDSPGVTEIWYDYWGQGTQVTVSS | low polyreactivity |
| QVQLVESGGGLVQAGGSLRLSCAAYGFTFWRNAMGWYIQAPGKERELVAAISASGGSTYYASSVKGRFTISRDNAKNTVYLQMNSLKPEDTAVYYCNAGEWAISEWGWVVDYDYWGQGTQVTVSS | low polyreactivity |
| QVQLVESGGGLVQAGGSLRLSCAAYGFTFWWYAMGWYRQAPGNERELVAAISASGASTYYADSVKGRFTISRDNAKNTVYLQMNSLKPEDTAVYYCAVVGLLRLYYWGQGTQVTVSS | high polyreactivity |
| QVQLVESGGGLVQAGGSLRLSCAAYGIIFRYYAMGWYRQAPGKERELVAAITASGGSTYYADSVKGRFTISRDHAKNTVYLQMNSLKPEDTAVYFGAAGSYFQHLIGYSTVSYGRNYWGQGTQVTVSS | high polyreactivity |
| QVQLVESGGGLVQAGGSLRLSCAAYGITFAPYAMGWYRQAPGKERELVAGINTGGSTYYADSVKGRFTISRDNAKNTVYLQMNSLKPEDTAVYYCATESYPADHDIPGSDYWGQGTQVTVSS | low polyreactivity |
| QVQLVESGGGLVQAGGSLRLSCAAYGITFRAYAMGWYRQAPGKEREFVASISGSGGSTYSADSVKGRFTISRDNAKNTVYFQMNSLKPEDTAVYYCATRRWGLATPTRYDYWGQGTQVTVSS | high polyreactivity |
| QVQLVESGGGLVQAGGSLRLSCAAYGITFSGYDMGWYRQAPGKERELVADITISTGSTYYADSVKGRFTISRDNAKNTVYLEMNSLKAEDTAVYYWNADSWFPDHFSYYGPYDYWGQGSQVTVSS | low polyreactivity |
| QVQLVESGGGLVQAGGSLRLSCAAYGITFSKNAKGWYRQAPGKERELVAAISRGGSSYYADSVKGRFTISRDNAKNTVYLQMNSLKPEDTAVYYCSAGWLRKYYYWGQGTQVTVSS | low polyreactivity |
| QVQLVESGGGLVQAGGSLRLSCAAYGLTLGRNAMGWYRQAPGKERELVAAITQSGGSTYYADSVKGRFTISRDNAKITVYLQMNSLKPEDTAVFYGAAQYSWGHYYTFDYWGQGTQVTVSS | low polyreactivity |
| QVQLVESGGGLVQAGGSLRLSCAAYGNTFYRNAMGWYRQAPGKERELVAAITFSTGRTYYADSVKGRFTISRDNAKNTVYLQLNSLKPEDTAVYYCAAFYRGGDYWGQGTQVTVSS | high polyreactivity |
| QVQLVESGGGLVQAGGSLRLSCAAYGRIFDGNAMGWYRQAPGKERELVAAITSRGGRTYYADSVKGRFTISRDNAKNTVYLQMNSLKPEDTAVYYCNTRVKSYGHYDYWGQGTQVTVSS | high polyreactivity |
| QVQLVESGGGLVQAGGSLRLSCAAYGRIFGYYAMGWYRQAPGKEREFVATISRSGGRTYYADSVKGRFTISRDNAKNTVYLQMNSLKPEDTAVYYCAKGVQFGSKTTFWYDYWGQGTQVTVSS | high polyreactivity |
| QVQLVESGGGLVQAGGSLRLSCAAYGRTFGLYAMGWYRQAPGKERELVAAISWGGGRTYYADSVKGRFTISRDNAKHTVYLQMNSLKPEDTAVFYCNAVYSPRYYVGGYDYWGQGTQVTVSS | high polyreactivity |
| QVQLVESGGGLVQAGGSLRLSCAAYGRTFPLYAMGWYRQAPGKEREFVAAISSRGGRTYYADSVKGRFTISRDNEKNTVYLQMNSLKPEDTAVYYCNARYVHDGFDYWGQGTQVTVSS | high polyreactivity |
| QVQLVESGGGLVQAGGSLRLSCAAYGRTLGDYAMGWYRQAPGKERELVAAISSGGNTYYADSVKGRFTISRDNAKNTVYLQMKSVKPEDSAVYYCDAAHYYRSYWGQGTQETVSS | high polyreactivity |
| QVQLVESGGGLVQAGGSLRLSCAAYGSIFAHYAMGWYRQAPGKERELVARISWSGGSTYYADSVKGRFSISLDNAKNTVYLQMNSLKPEDTAVYYCSADLTSKSSPQGYRYDYWGQGTQVTVSS | low polyreactivity |
| QVQLVESGGGLVQAGGSLRLSCAAYGSTFGGNARGWYIQAPGKERELVAVISKRGGSTYYADSVKGRFTISRDYEKNTVYLQINSLKPEDTAVYYCAATYSRYWSPTYDYWGQGTQVTVSS | high polyreactivity |
| QVQLVESGGGLVQAGGSLRLSCAAYGSTFKSYAMGWYSQAPGKDRELVAAITHRGSTYYADSVKGRFTISRDNAKNTVYLQMNSLKPEDTAVYYCNVRRIGNGRRVDYWGQGTQVTVSS | high polyreactivity |
